Residue numbers refer to the chain shown, from its start. Names and notes keep the numbering of the source.
B1: F227S (protein)
chain: EDDIIIATKNGKVRGMNLTVFGGTVTAFLGIPYAQPPLGRLRFKKPQSLTKWSDIWNATKYANSCCQNIDQSFPGFHGSEMWNPNTDLSEDCLYLNVWIPAPKPKNATVLIWIYGGGFQTGTSSLHVYDGKFLARVERVIVVSMNYRVGALGFLALPGNPEAPGNMGLFDQQLALQWVQKNIAAFGGNPKSVTLFGESAGAASVSLHLLSPGSHSLFTRAILQSGSSNAPWAVTSLYEARNRTLNLAKLTGCSRENETEIIKCLRNKDPQEILLNEAFVVPYGTPLSVNFGPTVDGDFLTDMPDILLELGQFKKTQILVGVNKDEGTAFLVYGAPGFSKDNNSIITRKEFQEGLKIFFPGVSEFGKESILFHYTDWVDDQRPENYREALGDVVGDYNFICPALEFTKKFSEWGNNAFFYYFEHRSSKLPWPEWMGVMHGYEIEFVFGLPLERRDNYTKAEEILSRSIVKRWANFAKYGNPNETQNNSTSWPVFKSTEQKYLTLNTESTRIMTKLRAQQCRFWTSFFPKVLEMTGNIDEAEWEWKAGFHRWNNYMMDWKNQFNDYTSKKESCVGL
modifications: Butyrylcholinesterase variant
B2: F227M (protein)
chain: B1 chain with S227M
modifications: Butyrylcholinesterase variant
B3: F227C (protein)
chain: B1 chain with S227C
modifications: Butyrylcholinesterase variant
B4: A199S (protein)
chain: B1 chain with A199S, S227F
modifications: Butyrylcholinesterase variant
B5: A328W/Y332P (protein)
chain: B1 chain with S227F, A328W, Y332P
modifications: Butyrylcholinesterase variant
B6: F227T (protein)
chain: B1 chain with S227T
modifications: Butyrylcholinesterase variant
B7: F227P (protein)
chain: B1 chain with S227P
modifications: Butyrylcholinesterase variant
B8: A328W/Y332M (protein)
chain: B1 chain with S227F, A328W, Y332M
modifications: Butyrylcholinesterase variant

Assay: microtiter isotope tracer [3H]-cocaine hydrolysis assay of immobilized butyrylcholinesterase variants
Type: biochemical
Conditions: for cocaine hydrolysis activity compared to butyrylcholinesterase (in words): compared to human butyrylcholinesterase; for increase in cocaine hydrolysis activity relative to butyrylcholinesterase: compared to human butyrylcholinesterase SEQ ID NO: 44, approximate values; for Relative Activity of butyrylcholinesterase variants (WT = 1) with enhanced cocaine hydrolase activity: relative to wild-type = 1, catalytic efficiency (Vmax/Km), [3H]-cocaine microtiter assay
Source text: At the conclusion of the isotope tracer assay, an aliquot of the reaction mix is acidified in order to take advantage of the solubility difference between the product and the substrate at pH 3.0. […] Prospect, Ill.) while [3H]-cocaine is not.
The supernatants isolated from each of the butyrylcholinesterase variant library clones contains variable butyrylcholinesterase enzyme concentrations.
At least three approaches are used to either increase the assay sensitivity or the assay signal.
Km values for (−)-cocaine are determined at 37° C. Vmax and Km values are calculated using Sigma Plot (Jandel Scientific, San Rafael, Calif.). The number of active sites of butyrylcholinesterase is determined by the method of residual activity using echothiopate iodide or diisopropyl fluorophosphates as titrants, as described previously by Masson et al., Biochemistry 36: 2266-2277 (1997). […] Purified human butyrylcholinesterase is used as the standard for the ELISA quantitation assay. The catalytic rate constant, kcat, is calculated by dividing Vmax by the concentration of active sites.

Row | Molecule | cocaine hydrolysis activity compared to butyrylcholinesterase (in words) | increase in cocaine hydrolysis activity relative to butyrylcholinesterase | Relative Activity of butyrylcholinesterase variants (WT = 1) with enhanced cocaine hydrolase activity
1 | B1 | enhanced cocaine hydrolase activity | two | 2.3
2 | B2 | enhanced cocaine hydrolase activity | one-and-a-half | 1.4
3 | B3 | enhanced cocaine hydrolase activity | two | 1.9
4 | B4 | enhanced cocaine hydrolase activity | two-and-a-half | 2.5
5 | B5 | enhanced cocaine hydrolase activity | ten | 10
6 | B6 | enhanced cocaine hydrolase activity | two | 1.9
7 | B7 | enhanced cocaine hydrolase activity | three | 2.9
8 | B8 | enhanced cocaine hydrolase activity | twenty-four | 24

Reference: patent US20060263345A1, “Butyrylcholinesterase variant polypeptides with increased catalytic efficiency and methods of use” (priority 2003, published 2006)
